Experimental data published in patent US20240270821A1, “GIP/GLP1/GCG TRI-RECEPTOR AGONISTS AND USES THEREOF” (priority 2023, published 2024).
Substitutions are numbered along the chain they refer to.

B1: Example 790 (peptide)
chain: YXQGTFTSDFSQXLDKKAQXAFIEYLLEXGESSGEPPPSGE
modifications: synthetic construct; SITE 2: note = 2-Aminoisobutyric Acid; SITE 13: note = alpha-methyl-leucine; SITE 17: note = Lysine is chemically modified through conjugation of the epsilon-amino group of the Lysine side chain with (2-[2-(2-Amino-ethoxy)-ethoxy]-acetyl)-(gamma-Glu)-CO-(CH2) 16-CO2H; SITE 20: n
B2: Example 749 (peptide)
chain: YXQGTXTSDXXIXLDXKAQXEFIEXLVEGGPSSGAPPPSGE
modifications: synthetic construct; SITE 2: note = 2-Aminoisobutyric Acid; SITE 6: note = alpha-methyl-2-fluoro-L-phenylalanine; SITE 10: note = 3-(4-Pyridyl)-L-alanine; SITE 11: note = alpha-methyl-L-serine; SITE 13: note = alpha-methyl-leucine; SITE 16: note = L-ornithine; SITE 17: note = Lysine is chemically mo
B3: Example 767 (peptide)
chain: B2 chain with A18Y, E41S
modifications: synthetic construct; SITE 2: note = 2-Aminoisobutyric Acid; SITE 6: note = alpha-methyl-2-fluoro-L-phenylalanine; SITE 10: note = 3-(4-Pyridyl)-L-alanine; SITE 11: note = alpha-methyl-L-serine; SITE 13: note = alpha-methyl-leucine; SITE 16: note = L-ornithine; SITE 17: note = Lysine is chemically mo
B4: Example 750 (peptide)
chain: B2 chain with A35E
modifications: synthetic construct; SITE 2: note = 2-Aminoisobutyric Acid; SITE 6: note = alpha-methyl-2-fluoro-L-phenylalanine; SITE 10: note = 3-(4-Pyridyl)-L-alanine; SITE 11: note = alpha-methyl-L-serine; SITE 13: note = alpha-methyl-leucine; SITE 16: note = L-ornithine; SITE 17: note = Lysine is chemically mo
B5: Example 768 (peptide)
chain: B2 chain with D15E, E41S
modifications: synthetic construct; SITE 2: note = 2-Aminoisobutyric Acid; SITE 6: note = alpha-methyl-2-fluoro-L-phenylalanine; SITE 10: note = 3-(4-Pyridyl)-L-alanine; SITE 11: note = alpha-methyl-L-serine; SITE 13: note = alpha-methyl-leucine; SITE 16: note = L-ornithine; SITE 17: note = Lysine is chemically mo
B6: Example 747 (peptide)
chain: YXQGTXTSDXXIXLDXKAAXEFIEXLIEGGPSSGAPPPSGGGE
modifications: synthetic construct; SITE 2: note = 2-Aminoisobutyric Acid; SITE 6: note = alpha-methyl-2-fluoro-L-phenylalanine; SITE 10: note = 3-(4-Pyridyl)-L-alanine; SITE 11: note = alpha-methyl-L-serine; SITE 13: note = alpha-methyl-leucine; SITE 16: note = L-ornithine; SITE 17: note = Lysine is chemically mo
B7: Example 763 (peptide)
chain: B6 chain with A19Q, A35E, S39E, G41T
modifications: synthetic construct; SITE 2: note = 2-Aminoisobutyric Acid; SITE 6: note = alpha-methyl-2-fluoro-L-phenylalanine; SITE 10: note = 3-(4-Pyridyl)-L-alanine; SITE 11: note = alpha-methyl-L-serine; SITE 13: note = alpha-methyl-leucine; SITE 16: note = L-ornithine; SITE 17: note = Lysine is chemically mo
B8: Example 748 (peptide)
chain: B6 chain with A35E
modifications: synthetic construct; SITE 2: note = 2-Aminoisobutyric Acid; SITE 6: note = alpha-methyl-2-fluoro-L-phenylalanine; SITE 10: note = 3-(4-Pyridyl)-L-alanine; SITE 11: note = alpha-methyl-L-serine; SITE 13: note = alpha-methyl-leucine; SITE 16: note = L-ornithine; SITE 17: note = Lysine is chemically mo
B9: Example 772 (peptide)
chain: YXQGTFTSDFSQXLDKKAQXAFIEYLLAGGPSSGAPPPEGS
modifications: synthetic construct; SITE 2: note = 2-Aminoisobutyric Acid; SITE 13: note = alpha-methyl-leucine; SITE 17: note = Lysine is chemically modified through conjugation of the epsilon-amino group of the Lysine side chain with (2-[2-(2-Amino-ethoxy)-ethoxy]-acetyl)-(gamma-Glu)-CO-(CH2) 16-CO2H; SITE 20: n
B10: Example 795 (peptide)
chain: B9 chain with L27I, A28E, P31E, E39S
modifications: synthetic construct; SITE 2: note = 2-Aminoisobutyric Acid; SITE 13: note = alpha-methyl-leucine; SITE 17: note = Lysine is chemically modified through conjugation of the epsilon-amino group of the Lysine side chain with (2-[2-(2-Amino-ethoxy)-ethoxy]-acetyl)-(gamma-Glu)-CO-(CH2) 16-CO2H; SITE 20: n
B11: Example 788 (peptide)
chain: B1 chain with E41S
modifications: synthetic construct; SITE 2: note = 2-Aminoisobutyric Acid; SITE 13: note = alpha-methyl-leucine; SITE 17: note = Lysine is chemically modified through conjugation of the epsilon-amino group of the Lysine side chain with (2-[2-(2-Amino-ethoxy)-ethoxy]-acetyl)-(gamma-Glu)-CO-(CH2) 16-CO2H; SITE 20: n
B12: Example 773 (peptide)
chain: B9 chain with A35E, E39S
modifications: synthetic construct; SITE 2: note = 2-Aminoisobutyric Acid; SITE 13: note = alpha-methyl-leucine; SITE 17: note = Lysine is chemically modified through conjugation of the epsilon-amino group of the Lysine side chain with (2-[2-(2-Amino-ethoxy)-ethoxy]-acetyl)-(gamma-Glu)-CO-(CH2) 16-CO2H; SITE 20: n
B13: Example 774 (peptide)
chain: B9 chain with Y25W, A28E
modifications: synthetic construct; SITE 2: note = 2-Aminoisobutyric Acid; SITE 13: note = alpha-methyl-leucine; SITE 17: note = Lysine is chemically modified through conjugation of the epsilon-amino group of the Lysine side chain with (2-[2-(2-Amino-ethoxy)-ethoxy]-acetyl)-(gamma-Glu)-CO-(CH2) 16-CO2H; SITE 20: n
B14: Example 794 (peptide)
chain: B9 chain with Q12R, L27I, A28E, P31E, E39S
modifications: synthetic construct; SITE 2: note = 2-Aminoisobutyric Acid; SITE 13: note = alpha-methyl-leucine; SITE 17: note = Lysine is chemically modified through conjugation of the epsilon-amino group of the Lysine side chain with (2-[2-(2-Amino-ethoxy)-ethoxy]-acetyl)-(gamma-Glu)-CO-(CH2) 16-CO2H; SITE 20: n

Molecular target: hGLP-1R (Homo sapiens, UniProt P43220)
Sequence (P43220 24-463): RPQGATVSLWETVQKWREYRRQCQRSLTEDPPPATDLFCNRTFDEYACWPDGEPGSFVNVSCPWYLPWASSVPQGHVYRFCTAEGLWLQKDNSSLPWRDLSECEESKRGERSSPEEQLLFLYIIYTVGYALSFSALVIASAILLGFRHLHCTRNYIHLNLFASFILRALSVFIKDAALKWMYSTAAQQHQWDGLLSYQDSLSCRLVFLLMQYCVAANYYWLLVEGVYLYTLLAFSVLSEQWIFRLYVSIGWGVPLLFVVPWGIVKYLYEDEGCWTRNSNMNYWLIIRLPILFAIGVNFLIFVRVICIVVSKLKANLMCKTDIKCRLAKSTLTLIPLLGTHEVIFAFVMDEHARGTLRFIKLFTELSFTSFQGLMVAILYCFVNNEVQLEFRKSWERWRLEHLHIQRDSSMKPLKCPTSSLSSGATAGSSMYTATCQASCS
Experiment: cell-based or functional assay

| Binder | Relative cAMP EC50 | cAMP Rel EC50, nM (1% HSA) |
| --- | --- | --- |
| B1 | 3.19 nM | 858 nM |
| B2 | 0.293 nM | 33.9 nM |
| B3 | 0.299 nM | 56.8 nM |
| B4 | 0.302 nM | 39.1 nM |
| B5 | 0.259 nM | 33.2 nM |
| B6 | 0.229 nM | 20.3 nM |
| B7 | 0.302 nM | 42.5 nM |
| B8 | 0.258 nM | 22.9 nM |
| B9 | 1.38 nM | 206 nM |
| B10 | 0.972 nM | 221 nM |
| B11 | 2.5 nM | 528 nM |
| B12 | 1.97 nM | 241 nM |
| B13 | 1.89 nM | 404 nM |
| B14 | 1.26 nM | 233 nM |

Molecular target: T1, human GIP receptor (human) (UniProt P48546)
T1 sequence (looked up): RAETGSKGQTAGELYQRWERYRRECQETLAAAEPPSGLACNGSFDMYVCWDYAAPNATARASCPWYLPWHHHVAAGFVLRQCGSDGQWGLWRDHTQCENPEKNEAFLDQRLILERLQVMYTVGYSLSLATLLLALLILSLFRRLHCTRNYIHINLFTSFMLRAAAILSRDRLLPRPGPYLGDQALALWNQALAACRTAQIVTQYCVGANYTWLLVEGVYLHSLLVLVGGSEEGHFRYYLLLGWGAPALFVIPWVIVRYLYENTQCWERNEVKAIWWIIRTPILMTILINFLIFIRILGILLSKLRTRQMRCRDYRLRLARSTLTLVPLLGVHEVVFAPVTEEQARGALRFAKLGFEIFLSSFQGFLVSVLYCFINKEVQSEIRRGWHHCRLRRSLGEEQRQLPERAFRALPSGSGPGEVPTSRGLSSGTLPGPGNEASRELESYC
Experiment: cell-based or functional assay

| Binder | Relative cAMP EC50 | cAMP Rel EC50, nM (1% HSA) |
| --- | --- | --- |
| B1 | 0.131 nM | 34.1 nM |
| B2 | 0.00718 nM | 1.47 nM |
| B3 | 0.00792 nM | 1.51 nM |
| B4 | 0.00784 nM | 1.34 nM |
| B5 | 0.0294 nM | 2.65 nM |
| B6 | 0.00955 nM | 0.651 nM |
| B7 | 0.00719 nM | 1.16 nM |
| B8 | 0.0105 nM | 0.865 nM |
| B9 | 0.115 nM | 21.6 nM |
| B10 | 0.345 nM | 67.3 nM |
| B11 | 0.0923 nM | 20.7 nM |
| B12 | 0.0974 nM | 26.3 nM |
| B13 | 0.128 nM | 32.8 nM |
| B14 | 0.468 nM | 68.4 nM |

Molecular target: human glucagon receptor (human) (UniProt P47871)
Sequence (P47871 26-477): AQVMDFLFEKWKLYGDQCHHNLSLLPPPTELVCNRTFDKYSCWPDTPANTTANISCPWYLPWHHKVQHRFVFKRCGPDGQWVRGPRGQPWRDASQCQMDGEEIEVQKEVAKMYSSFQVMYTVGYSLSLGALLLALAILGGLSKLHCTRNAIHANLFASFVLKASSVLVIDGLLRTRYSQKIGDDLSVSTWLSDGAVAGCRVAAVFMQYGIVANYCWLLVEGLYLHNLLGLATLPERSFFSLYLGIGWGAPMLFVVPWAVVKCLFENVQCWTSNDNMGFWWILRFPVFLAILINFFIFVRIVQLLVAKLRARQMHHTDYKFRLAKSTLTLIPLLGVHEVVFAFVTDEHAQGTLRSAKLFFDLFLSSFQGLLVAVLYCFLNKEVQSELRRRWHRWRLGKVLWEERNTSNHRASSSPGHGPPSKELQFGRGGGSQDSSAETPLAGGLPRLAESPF
Experiment: cell-based or functional assay

| Binder | Relative cAMP EC50 | cAMP Rel EC50, nM (1% HSA) |
| --- | --- | --- |
| B1 | 3.87 nM | 1200 nM |
| B2 | 2.21 nM | 28 nM |
| B3 | 1.13 nM | 207 nM |
| B4 | 2 nM | 205 nM |
| B5 | 10.3 nM | 2270 nM |
| B6 | 1.71 nM | 169 nM |
| B7 | 1.57 nM | 222 nM |
| B8 | 1.42 nM | 156 nM |
| B9 | 15.9 nM | 1880 nM |
| B10 | 1.77 nM | 566 nM |
| B11 | 3.36 nM | 1420 nM |
| B12 | 15.3 nM | 2260 nM |
| B13 | 13.7 nM | 2330 nM |
| B14 | 1.21 nM | 297 nM |
